One substance from paper PMC5717261 can be followed below.

The target in the assay is Recombinant human MASP-2 (stabilized in a proenzyme form by mutation of the active site Ser 618 into Ala) (human). Briefly: SPR; BIAcore 3000, 25 °C; BMP-1, mTLL-1 or MASP-2 immobilised by amine coupling on CM5; C1q or MBL injected (60 µl, 20 µl/min) at several concentrations in 50 mM triethanolamine-HCl, 145 mM NaCl, 2 mM CaCl2, 0.005% surfactant P20, pH 7.4; global fit to a 1:1 Langmuir model; apparent KD from kd/ka. (In general: SPR reads the build-up and loss of mass on a sensor chip optically.)

Chain of Recombinant human mannose-binding lectin (MBL) (P11226 21-248): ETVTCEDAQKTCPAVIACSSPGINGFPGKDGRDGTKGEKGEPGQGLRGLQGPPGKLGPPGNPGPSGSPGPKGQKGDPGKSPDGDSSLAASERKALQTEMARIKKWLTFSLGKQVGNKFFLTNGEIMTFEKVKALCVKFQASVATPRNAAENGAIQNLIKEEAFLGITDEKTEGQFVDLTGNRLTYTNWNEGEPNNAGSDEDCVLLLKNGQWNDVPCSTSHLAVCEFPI

Regarding “Recombinant human mannose-binding lectin (MBL) (from UniProt P11226 21-248) (natural protein)”, the Kd stood at 1.7 nM, the dissociation rate constant (koff) came out at 0.00047 s⁻¹ and the on-rate (kon) came to 280000 M⁻¹ s⁻¹.

The koff is the rate constant with which the complex falls apart. The term kon denotes the rate constant with which the complex forms.
